Experiment [1] addresses human FcγRIa extracellular domain with C-terminal His tag (human, UniProt P12314 16-292). In words: SPR. Background: SPR reads the build-up and loss of mass on a sensor chip optically.
For experiment [2], the target named is T1, human FcγRIIa type R (131Arg) extracellular domain with C-terminal His tag (human, UniProt P12318 34-217).
T1 sequence (looked up): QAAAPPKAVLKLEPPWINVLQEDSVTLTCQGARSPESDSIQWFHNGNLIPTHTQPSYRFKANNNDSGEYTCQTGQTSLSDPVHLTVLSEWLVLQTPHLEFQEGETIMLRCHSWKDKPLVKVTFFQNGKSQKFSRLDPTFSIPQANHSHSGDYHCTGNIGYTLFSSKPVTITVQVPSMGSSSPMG
The experiment can be described thus: SPR.

Experiment [3] deals with T2, human FcγRIIb extracellular domain with C-terminal His tag (human, UniProt P31994 43-217).
T2 sequence (looked up): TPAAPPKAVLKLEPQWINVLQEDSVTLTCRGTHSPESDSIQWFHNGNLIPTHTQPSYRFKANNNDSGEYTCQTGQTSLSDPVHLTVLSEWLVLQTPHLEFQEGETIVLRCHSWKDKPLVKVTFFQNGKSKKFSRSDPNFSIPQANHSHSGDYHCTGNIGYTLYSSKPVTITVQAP
The experiment can be described thus: ratio of SPR KDs.

Experiment [4] addresses T2, human FcγRIIb extracellular domain with …. The experiment can be described thus: ratio of SPR KDs. This is another data set of the same source.
The target in experiment [5] is T3, human FcγRIIa type R extracellular domain with C-terminal His tag (human, UniProt P12318 34-217).
T3 sequence (looked up): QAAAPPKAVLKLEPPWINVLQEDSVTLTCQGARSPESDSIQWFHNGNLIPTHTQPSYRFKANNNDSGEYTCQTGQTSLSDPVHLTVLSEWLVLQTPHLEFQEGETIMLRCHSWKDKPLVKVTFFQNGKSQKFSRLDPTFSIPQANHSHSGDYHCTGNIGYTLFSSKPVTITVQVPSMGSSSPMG
In words: SPR.

Experiment [6] addresses human FcγRIIIa type V extracellular domain with C-terminal His tag (human, UniProt P08637 17-208). In words: SPR.
Target sequence in this assay (P08637 17-208 F176V): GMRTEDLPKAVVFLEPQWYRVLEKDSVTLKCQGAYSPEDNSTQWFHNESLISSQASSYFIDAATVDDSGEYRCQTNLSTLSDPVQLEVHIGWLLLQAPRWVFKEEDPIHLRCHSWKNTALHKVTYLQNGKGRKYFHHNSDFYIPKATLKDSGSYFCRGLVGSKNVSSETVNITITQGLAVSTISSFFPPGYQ
Experiment [7] has as its target T4, human FcγRIIa type H extracellular domain with C-terminal His tag (human, UniProt P12318 34-217).
T4 sequence (looked up): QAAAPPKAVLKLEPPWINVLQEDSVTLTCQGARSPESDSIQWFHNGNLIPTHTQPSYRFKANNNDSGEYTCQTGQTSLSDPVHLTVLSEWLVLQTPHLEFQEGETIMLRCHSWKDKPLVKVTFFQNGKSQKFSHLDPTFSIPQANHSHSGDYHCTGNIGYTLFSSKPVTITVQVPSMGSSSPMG
The experiment can be described thus: SPR.

In experiment [8] the target is human FcγRIIIa type V extracellular domain with C-terminal His tag (human, UniProt P08637 17-208). The experiment can be described thus: SPR. This is another data set of the same source.
Target sequence in this assay (P08637 17-208 F176V): as the sequence (P08637 17-208 F176V) above

Like-named read-outs stand apart in the source and are kept apart here.

Sequence of human FcγRIa extracellular domain with C-terminal His tag (P12314 16-292): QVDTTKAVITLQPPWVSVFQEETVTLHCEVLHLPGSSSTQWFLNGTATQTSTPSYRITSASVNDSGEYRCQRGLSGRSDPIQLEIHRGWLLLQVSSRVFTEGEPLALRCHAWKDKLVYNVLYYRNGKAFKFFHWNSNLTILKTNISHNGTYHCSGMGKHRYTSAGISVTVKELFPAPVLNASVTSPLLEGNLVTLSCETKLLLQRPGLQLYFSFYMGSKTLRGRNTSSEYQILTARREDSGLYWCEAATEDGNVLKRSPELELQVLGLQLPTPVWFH

B1: IL6R-BP143/IL6R-L (antibody, human IgG1, kappa)
heavy: QVQLQESGPGLVKPSETLSLTCAVSGHSISHDHAWSWVRQPPGEGLEWIGFISYSGITNYNPSLQGRVTISRDNSKNTLYLQMNSLRAEDTAVYYCARSLARTTAMDYWGEGTLVTVSSASTKGPSVFPLAPSSKSTSGGTAALGCLVKDYFPEPVTVSWNSGALTSGVHTFPAVLQSSGLYSLSSVVTVPSSSLGTQTYICNVNHKPSNTKVDKKVEPKSCDKTHTCPPCPAPEYLGGDSVFLFPPKPKDTLMISRTPEVTCVVVDVSHEDPEVKFNWYVDGVEVHNAKTKPREEQYNSTYRVVSVLTVLHQDWLNGKEYKCKVSNAALPAPIEKTISKAKGQPREPQVYTLPPSRDELTKNQVSLTCLVKGFYPSDIAVEWESNGQPENNYKTTPPVLDSDGSFFLYSKLTVDKSRWQQGNVFSCSVMHEALHNHYTQESLSLSP
light: not shown
As for B1, the dissociation constant Kd (in general, the free concentration of one partner at which half of the binding sites on the other are occupied at equilibrium, for simple one-to-one binding) in experiment [1] was 18 nM. In other words, the double-digit nanomolar range.

B2: IL6R-BP483/IL6R-L (antibody, human IgG1, kappa)
heavy: QVQLQESGPGLVKPSETLSLTCAVSGHSISHDHAWSWVRQPPGEGLEWIGFISYSGITNYNPSLQGRVTISRDNSKNTLYLQMNSLRAEDTAVYYCARSLARTTAMDYWGEGTLVTVSSASTKGPSVFPLAPSSKSTSGGTAALGCLVKDYFPEPVTVSWNSGALTSGVHTFPAVLQSSGLYSLSSVVTVPSSSLGTQTYICNVNHKPSNTKVDKKVEPKSCDKTHTCPPCPAPDLLGDDSVFLFPPKPKDTLMISRTPEVTCVVVDLAEEDGEVKFNWYVDGVEVHNAKTKPREEQYNSTYRVVSVLTVLHQDWLNGKEYKCKVSNKALPAPIEKTISKAKGQPREPQVYTLPPSRDELTKNQVSLTCLVKGFYPSDIAVEWESNGQPENNYKTTPPVLDSDGSFFLYSKLTVDKSRWQQGNVFSCSVMHEALHNHYTQESLSLSP
light: not shown
The molecule B2 displayed a dissociation constant (Kd) in experiment [2] of 13 nM. The “KD (IIaH)/KD (IIb)” value in experiment [3] is 230. Also, in experiment [4], the “KD (IIaR)/KD (IIb)” value was 16.

B3: IL6R-BP150/IL6R-L (antibody, human IgG1, kappa)
heavy: QVQLQESGPGLVKPSETLSLTCAVSGHSISHDHAWSWVRQPPGEGLEWIGFISYSGITNYNPSLQGRVTISRDNSKNTLYLQMNSLRAEDTAVYYCARSLARTTAMDYWGEGTLVTVSSASTKGPSVFPLAPSSKSTSGGTAALGCLVKDYFPEPVTVSWNSGALTSGVHTFPAVLQSSGLYSLSSVVTVPSSSLGTQTYICNVNHKPSNTKVDKKVEPKSCDKTHTCPPCPAPEYLGDDSVFLFPPKPKDTLMISRTPEVTCVVVDVSHEDPEVKFNWYVDGVEVHNAKTKPREEQYNSTYRVVSVLTVLHQDWLNGKEYKCKVSNAALPRPIEKTISKAKGQPREPQVYTLPPSRDELTKNQVSLTCLVKGFYPSDIAVEWESNGQPENNYKTTPPVLDSDGSFFLYSKLTVDKSRWQQGNVFSCSVMHEALHNHYTQESLSLSP
light: not shown
For B3, in experiment [1], the Kd was determined as 300 nM.

B4: IL6R-BP183/IL6R-L (antibody, human IgG1, kappa)
heavy: QVQLQESGPGLVKPSETLSLTCAVSGHSISHDHAWSWVRQPPGEGLEWIGFISYSGITNYNPSLQGRVTISRDNSKNTLYLQMNSLRAEDTAVYYCARSLARTTAMDYWGEGTLVTVSSASTKGPSVFPLAPSSKSTSGGTAALGCLVKDYFPEPVTVSWNSGALTSGVHTFPAVLQSSGLYSLSSVVTVPSSSLGTQTYICNVNHKPSNTKVDKKVEPKSCDKTHTCPPCPAPDYLGGDSVFLFPPKPKDTLMISRTPEVTCVVVDVSHEDGEVKFNWYVDGVEVHNAKTKPREEQYNSTYRVVSVLTVLHQDWLNGKEYKCKVSNAALPKPIEKTISKAKGQPREPQVYTLPPSRDELTKNQVSLTCLVKGFYPSDIAVEWESNGQPENNYKTTPPVLDSDGSFFLYSKLTVDKSRWQQGNVFSCSVMHEALHNHYTQESLSLSP
light: not shown
Molecule B4 showed a Kd in experiment [5] of 2500 nM.

B5: IL6R-BP213/IL6R-L (antibody, human IgG1, kappa)
heavy: QVQLQESGPGLVKPSETLSLTCAVSGHSISHDHAWSWVRQPPGEGLEWIGFISYSGITNYNPSLQGRVTISRDNSKNTLYLQMNSLRAEDTAVYYCARSLARTTAMDYWGEGTLVTVSSASTKGPSVFPLAPSSKSTSGGTAALGCLVKDYFPEPVTVSWNSGALTSGVHTFPAVLQSSGLYSLSSVVTVPSSSLGTQTYICNVNHKPSNTKVDKKVEPKSCDKTHTCPPCPAPDLLGGDSVFLFPPKPKDTLMISRTPEVTCVVVDVSDEDGEVKFNWYVDGVEVHNAKTKPREEQYNSTYRVVSVLTVLHQDWLNGKEYKCKVSNKALPRPIEKTISKAKGQPREPQVYTLPPSRDELTKNQVSLTCLVKGFYPSDIAVEWESNGQPENNYKTTPPVLDSDGSFFLYSKLTVDKSRWQQGNVFSCSVMHEALHNHYTQESLSLSP
light: not shown
On to B5, for which, in experiment [6], the Kd is 65000 nM.

B6: IL6R-BP186/IL6R-L (antibody, human IgG1, kappa)
heavy: QVQLQESGPGLVKPSETLSLTCAVSGHSISHDHAWSWVRQPPGEGLEWIGFISYSGITNYNPSLQGRVTISRDNSKNTLYLQMNSLRAEDTAVYYCARSLARTTAMDYWGEGTLVTVSSASTKGPSVFPLAPSSKSTSGGTAALGCLVKDYFPEPVTVSWNSGALTSGVHTFPAVLQSSGLYSLSSVVTVPSSSLGTQTYICNVNHKPSNTKVDKKVEPKSCDKTHTCPPCPAPDYLGDDSVFLFPPKPKDTLMISRTPEVTCVVVDVSHEDGEVKFNWYVDGVEVHNAKTKPREEQDNSTYRVVSVLTVLHQDWLNGKEYKCKVSNAALPKPIEKTISKAKGQPREPQVYTLPPSRDELTKNQVSLTCLVKGFYPSDIAVEWESNGQPENNYKTTPPVLDSDGSFFLYSKLTVDKSRWQQGNVFSCSVMHEALHNHYTQESLSLSP
light: not shown
Take B6: the Kd in experiment [5] was found to be 950 nM. That is a sub-micromolar value.

B7: IL6R-BP209/IL6R-L (antibody, human IgG1, kappa)
heavy: QVQLQESGPGLVKPSETLSLTCAVSGHSISHDHAWSWVRQPPGEGLEWIGFISYSGITNYNPSLQGRVTISRDNSKNTLYLQMNSLRAEDTAVYYCARSLARTTAMDYWGEGTLVTVSSASTKGPSVFPLAPSSKSTSGGTAALGCLVKDYFPEPVTVSWNSGALTSGVHTFPAVLQSSGLYSLSSVVTVPSSSLGTQTYICNVNHKPSNTKVDKKVEPKSCDKTHTCPPCPAPELLGDDSVFLFPPKPKDTLMISRTPEVTCVVVDVSDEDGEVKFNWYVDGVEVHNAKTKPREEQYNSTYRVVSVLTVLHQDWLNGKEYKCKVSNAALPRPIEKTISKAKGQPREPQVYTLPPSRDELTKNQVSLTCLVKGFYPSDIAVEWESNGQPENNYKTTPPVLDSDGSFFLYSKLTVDKSRWQQGNVFSCSVMHEALHNHYTQESLSLSP
light: not shown
Regarding B7, in experiment [7], the Kd was determined as 1000 nM. This counts as single-digit micromolar.

B8: IL6R-BP480/IL6R-L (antibody, human IgG1, kappa)
heavy: QVQLQESGPGLVKPSETLSLTCAVSGHSISHDHAWSWVRQPPGEGLEWIGFISYSGITNYNPSLQGRVTISRDNSKNTLYLQMNSLRAEDTAVYYCARSLARTTAMDYWGEGTLVTVSSASTKGPSVFPLAPSSKSTSGGTAALGCLVKDYFPEPVTVSWNSGALTSGVHTFPAVLQSSGLYSLSSVVTVPSSSLGTQTYICNVNHKPSNTKVDKKVEPKSCDKTHTCPPCPAPDLLGDDSVFLFPPKPKDTLMISRTPEVTCVVVDLSEDDGEVKFNWYVDGVEVHNAKTKPREEQYNSTYRVVSVLTVLHQDWLNGKEYKCKVSNKALPAPIEKTISKAKGQPREPQVYTLPPSRDELTKNQVSLTCLVKGFYPSDIAVEWESNGQPENNYKTTPPVLDSDGSFFLYSKLTVDKSRWQQGNVFSCSVMHEALHNHYTQESLSLSP
light: not shown
The molecule B8 came in with a dissociation constant (Kd) in experiment [8] of 40000 nM.

B9: IL6R-BP184/IL6R-L (antibody, human IgG1, kappa)
heavy: QVQLQESGPGLVKPSETLSLTCAVSGHSISHDHAWSWVRQPPGEGLEWIGFISYSGITNYNPSLQGRVTISRDNSKNTLYLQMNSLRAEDTAVYYCARSLARTTAMDYWGEGTLVTVSSASTKGPSVFPLAPSSKSTSGGTAALGCLVKDYFPEPVTVSWNSGALTSGVHTFPAVLQSSGLYSLSSVVTVPSSSLGTQTYICNVNHKPSNTKVDKKVEPKSCDKTHTCPPCPAPDLLGGDSVFLFPPKPKDTLMISRTPEVTCVVVDVSHEDGEVKFNWYVDGVEVHNAKTKPREEQYNSTYRVVSVLTVLHQDWLNGKEYKCKVSNKALPKPIEKTISKAKGQPREPQVYTLPPSRDELTKNQVSLTCLVKGFYPSDIAVEWESNGQPENNYKTTPPVLDSDGSFFLYSKLTVDKSRWQQGNVFSCSVMHEALHNHYTQESLSLSP
light: not shown
For B9, in experiment [6], the equilibrium dissociation constant (Kd) worked out at 68 nM.

B10: IL6R-BP204/IL6R-L (antibody, human IgG1, kappa)
heavy: QVQLQESGPGLVKPSETLSLTCAVSGHSISHDHAWSWVRQPPGEGLEWIGFISYSGITNYNPSLQGRVTISRDNSKNTLYLQMNSLRAEDTAVYYCARSLARTTAMDYWGEGTLVTVSSASTKGPSVFPLAPSSKSTSGGTAALGCLVKDYFPEPVTVSWNSGALTSGVHTFPAVLQSSGLYSLSSVVTVPSSSLGTQTYICNVNHKPSNTKVDKKVEPKSCDKTHTCPPCPAPDLLGGDSVFLFPPKPKDTLMISRTPEVTCVVVDVSHEDGEVKFNWYVDGVEVHNAKTKPREEQYNSTYRVVSVLTVLHQDWLNGKEYKCKVSNAALPRPIEKTISKAKGQPREPQVYTLPPSRDELTKNQVSLTCLVKGFYPSDIAVEWESNGQPENNYKTTPPVLDSDGSFFLYSKLTVDKSRWQQGNVFSCSVMHEALHNHYTQESLSLSP
light: not shown
Take B10: the affinity in experiment [7], expressed as Kd, was 2100 nM.

The record behind these values is patent US20230140797A1 (published 2023).
